{
  "source": "the RNAGym collection of RNA variant scans (doi:10.7554/elife.80360)",
  "parents": {"B1": {"name": "HDV Ribozyme (parent)", "chain": "GGCCGGCAUGGUCCCAGCCUCCUCGCUGGCGCCGGCUGGGCAACAUUCCGAGGGGACCGUCCCCUCGGUAAUGGCGAAUGGGACCCA"}},
  "data": [
    {"variants_of": "B1", "assay": "self-cleavage, relative activity (ratio to wild type); higher = more cleavage; co-transcriptional", "values": [
      {"variant": "A42C C44A", "self-cleavage": 0.285},
      {"variant": "A42C C44U", "self-cleavage": 0.161},
      {"variant": "C21A U65C", "self-cleavage": 0.0583},
      {"variant": "U9C C19U", "self-cleavage": 0.208},
      {"variant": "G28U C44G", "self-cleavage": 0.111},
      {"variant": "G2A A51U", "self-cleavage": 0.155},
      {"variant": "C22A G50U", "self-cleavage": 0.293},
      {"variant": "G5C C19G", "self-cleavage": 0},
      {"variant": "C44A U47C", "self-cleavage": 0.831},
      {"variant": "A56U A78G", "self-cleavage": 0.684},
      {"variant": "U47A A70G", "self-cleavage": 0.831},
      {"variant": "U23A G28U", "self-cleavage": 0.116},
      {"variant": "A51G C62G", "self-cleavage": 0.739},
      {"variant": "A8G A70G", "self-cleavage": 1.09},
      {"variant": "G55U C62G", "self-cleavage": 0.793},
      {"variant": "G39A G53C", "self-cleavage": 0.383},
      {"variant": "C15G U60A", "self-cleavage": 0.185},
      {"variant": "A45U G50A", "self-cleavage": 0.844},
      {"variant": "C18G G35U", "self-cleavage": 0.0415},
      {"variant": "U23A A71U", "self-cleavage": 0.831},
      {"variant": "A16C C66U", "self-cleavage": 0.982},
      {"variant": "A45U A51G", "self-cleavage": 0.965},
      {"variant": "G1U A83G", "self-cleavage": 0.461},
      {"variant": "U12A C63G", "self-cleavage": 0.293},
      {"variant": "C7G C26A", "self-cleavage": 0.138},
      {"variant": "C57G G76A", "self-cleavage": 1.04},
      {"variant": "C41U A78U", "self-cleavage": 0.199},
      {"variant": "U79C A83U", "self-cleavage": 0.323},
      {"variant": "C4U C49A", "self-cleavage": 0.332},
      {"variant": "C22A C30G", "self-cleavage": 0.154},
      {"variant": "C58G G81U", "self-cleavage": 0.26},
      {"variant": "C22G C30G", "self-cleavage": 0.0437},
      {"variant": "G39C A56C", "self-cleavage": 0.18},
      {"variant": "U12C G53U", "self-cleavage": 0.427},
      {"variant": "U27C A83G", "self-cleavage": 0.727},
      {"variant": "G67A G68A", "self-cleavage": 0.946},
      {"variant": "A8C C64G", "self-cleavage": 0.415},
      {"variant": "U23G C30A", "self-cleavage": 0.145},
      {"variant": "G34C C85U", "self-cleavage": 0.277},
      {"variant": "C7G G34U", "self-cleavage": 0.0504},
      {"variant": "U12G A56U", "self-cleavage": 1.22},
      {"variant": "G38C C64G", "self-cleavage": 0.415},
      {"variant": "G31C G59C", "self-cleavage": 0.378},
      {"variant": "U47A A51U", "self-cleavage": 1.03},
      {"variant": "G6C C26G", "self-cleavage": 0.378},
      {"variant": "G2U A83C", "self-cleavage": 0.0594},
      {"variant": "G10U A51C", "self-cleavage": 1.09},
      {"variant": "G5U G38C", "self-cleavage": 0.0875},
      {"variant": "G2A G59U", "self-cleavage": 0.19},
      {"variant": "C18G C36G", "self-cleavage": 0},
      {"variant": "G2C U12G", "self-cleavage": 0.0426},
      {"variant": "G11U G68A", "self-cleavage": 0.205},
      {"variant": "C24U G40C", "self-cleavage": 0.138},
      {"variant": "G31C G68C", "self-cleavage": 0.138},
      {"variant": "G11U C14A", "self-cleavage": 0.0707},
      {"variant": "C33G G40U", "self-cleavage": 0.233},
      {"variant": "G6U U37A", "self-cleavage": 0.0437},
      {"variant": "G40C A45C", "self-cleavage": 0.0845},
      {"variant": "C7A C22G", "self-cleavage": 0.0791},
      {"variant": "C4U G34U", "self-cleavage": 0.424},
      {"variant": "U20C G81C", "self-cleavage": 0},
      {"variant": "G6C G28U", "self-cleavage": 0},
      {"variant": "G2C C33U", "self-cleavage": 0.0608},
      {"variant": "C41A G54U", "self-cleavage": 0.862},
      {"variant": "G28U G68C", "self-cleavage": 0.0733},
      {"variant": "A45U C86U", "self-cleavage": 0.95},
      {"variant": "C32U U46C", "self-cleavage": 0.554},
      {"variant": "G40A G73A", "self-cleavage": 0.669},
      {"variant": "G54U U65C", "self-cleavage": 0.969},
      {"variant": "G67C G80U", "self-cleavage": 0.223},
      {"variant": "C18U C24G", "self-cleavage": 0.0665},
      {"variant": "G11A A16G", "self-cleavage": 0.323},
      {"variant": "C21A G76C", "self-cleavage": 0.0997},
      {"variant": "G35A C57U", "self-cleavage": 0.686},
      {"variant": "U23C U79C", "self-cleavage": 0.232},
      {"variant": "C14G G55U", "self-cleavage": 0.682},
      {"variant": "G1C G40U", "self-cleavage": 0.189},
      {"variant": "C18A G39A", "self-cleavage": 0.0739},
      {"variant": "G31U C57G", "self-cleavage": 0.439},
      {"variant": "C49G A77G", "self-cleavage": 0.536},
      {"variant": "G10A G80C", "self-cleavage": 0.131},
      {"variant": "A71U A87C", "self-cleavage": 0.913},
      {"variant": "G39A U60A", "self-cleavage": 0.268},
      {"variant": "C22U G25C", "self-cleavage": 0.0852},
      {"variant": "G17C A71C", "self-cleavage": 0.246},
      {"variant": "U9G C66U", "self-cleavage": 0.727},
      {"variant": "C22A G25U", "self-cleavage": 0.0755},
      {"variant": "C7A C63G", "self-cleavage": 0.35},
      {"variant": "C33U G67C", "self-cleavage": 0.771},
      {"variant": "G17U G73U", "self-cleavage": 0.222},
      {"variant": "C48G G73U", "self-cleavage": 0.506},
      {"variant": "G28U U65G", "self-cleavage": 0.128},
      {"variant": "C84G C86A", "self-cleavage": 0.764},
      {"variant": "A43C C62A", "self-cleavage": 0.415},
      {"variant": "G34A U79G", "self-cleavage": 0.0875},
      {"variant": "G6U C33U", "self-cleavage": 0.217},
      {"variant": "C7A C44A", "self-cleavage": 0.0978},
      {"variant": "U9A A87U", "self-cleavage": 1.03},
      {"variant": "C4G C66A", "self-cleavage": 0.369},
      {"variant": "G17U C24U", "self-cleavage": 0.146},
      {"variant": "C18G A43G", "self-cleavage": 0.145},
      {"variant": "U12A G40A", "self-cleavage": 0.374},
      {"variant": "G2C C85A", "self-cleavage": 0.0287},
      {"variant": "C33U A43G", "self-cleavage": 0.227},
      {"variant": "C7U U20G", "self-cleavage": 0.133},
      {"variant": "G54C U65A", "self-cleavage": 0.721},
      {"variant": "G5A G29U", "self-cleavage": 0.0519},
      {"variant": "A16U G67C", "self-cleavage": 0.978},
      {"variant": "C41A A51G", "self-cleavage": 0.705},
      {"variant": "C14G U69C", "self-cleavage": 0.519},
      {"variant": "C19A A45U", "self-cleavage": 0.199},
      {"variant": "C26U U69C", "self-cleavage": 1.12},
      {"variant": "C41U A43C", "self-cleavage": 0.831},
      {"variant": "G5A U27G", "self-cleavage": 0.217},
      {"variant": "G34C U46C", "self-cleavage": 0.332},
      {"variant": "C41U G73U", "self-cleavage": 0.511},
      {"variant": "C7G A78G", "self-cleavage": 0.0831},
      {"variant": "U23C G59C", "self-cleavage": 1.26},
      {"variant": "C64U C75A", "self-cleavage": 0.242},
      {"variant": "C14G G25C", "self-cleavage": 0},
      {"variant": "A8C G52A", "self-cleavage": 0.831},
      {"variant": "C36A G40C", "self-cleavage": 0.102},
      {"variant": "C26G C66G", "self-cleavage": 1.1},
      {"variant": "A71C A78U", "self-cleavage": 0.147},
      {"variant": "G76A A78G", "self-cleavage": 0.816},
      {"variant": "G5U G67U", "self-cleavage": 0.364},
      {"variant": "G40C U47A", "self-cleavage": 0.0845},
      {"variant": "G38A U72G", "self-cleavage": 0.0415},
      {"variant": "C24G G55U", "self-cleavage": 0.16},
      {"variant": "C4U G25A", "self-cleavage": 0.111},
      {"variant": "G34C G82A", "self-cleavage": 0.0308},
      {"variant": "C41U A42U", "self-cleavage": 0.831},
      {"variant": "C36A U79A", "self-cleavage": 0.0615},
      {"variant": "U27A U46G", "self-cleavage": 0.369},
      {"variant": "C13U G52C", "self-cleavage": 0.639},
      {"variant": "G17A G68A", "self-cleavage": 0.76},
      {"variant": "G59A A77G", "self-cleavage": 0.867},
      {"variant": "G52C G76U", "self-cleavage": 1.03},
      {"variant": "G29C U60C", "self-cleavage": 0.0449},
      {"variant": "G5C G29C", "self-cleavage": 0.0615},
      {"variant": "G68A G74C", "self-cleavage": 0.314},
      {"variant": "G6C G10U", "self-cleavage": 0.0755},
      {"variant": "A42C G59A", "self-cleavage": 0.213},
      {"variant": "G38C U72G", "self-cleavage": 0},
      {"variant": "C15G U27A", "self-cleavage": 0.431},
      {"variant": "C18A A71G", "self-cleavage": 0.0739},
      {"variant": "U12G C13G", "self-cleavage": 0.639},
      {"variant": "C18G G39U", "self-cleavage": 0.0554},
      {"variant": "A45G C84U", "self-cleavage": 0.658},
      {"variant": "G17C A78C", "self-cleavage": 0.0755},
      {"variant": "C26A C30G", "self-cleavage": 0.17},
      {"variant": "C7A A8C", "self-cleavage": 0.65},
      {"variant": "C15G C49A", "self-cleavage": 0.519},
      {"variant": "G50A G80A", "self-cleavage": 0.415},
      {"variant": "G50A G80C", "self-cleavage": 0.284},
      {"variant": "G73C C75A", "self-cleavage": 0.173},
      {"variant": "G34U A45C", "self-cleavage": 0.117},
      {"variant": "A8G A87U", "self-cleavage": 0.991},
      {"variant": "C7U G59C", "self-cleavage": 0.848},
      {"variant": "A51U C63A", "self-cleavage": 0.911},
      {"variant": "C7A C36A", "self-cleavage": 0.0923},
      {"variant": "G25C U79G", "self-cleavage": 0.0594},
      {"variant": "C18G G25C", "self-cleavage": 0.222},
      {"variant": "C63G U65C", "self-cleavage": 0.151},
      {"variant": "G53C G55A", "self-cleavage": 0.898},
      {"variant": "U69G G76A", "self-cleavage": 0.855},
      {"variant": "U47C C85A", "self-cleavage": 0.587}
    ]}
  ]
}
